Test results published in patent US12173061B2, “Compositions and methods for treatment of chronic lung diseases” (Board of Regents, The University of Texas System, priority 2021, dated 2024).
Entries after “also recorded” stand apart in the source; their conditions may differ.

B1: rM9^ECD: recombinant extracellular domain of human MEGF9 (SEQ ID NO: 102) (protein, listed as Homo sapiens)
chain: MGWSCIILFLVATATGVHSAAVASAASAGNVTGGGGAAGQVDASPGPGLRGEPSHPFPRATAPTAQAPRTGPPRATVHRPLAATSPAQSPETTPLWATAGPSSTTFQAPLGPSPTTPPAAERTSTTSQAPTRPAPTTLSTTTGPAPTTPVATTVPAPTTPRTPTPDLPSSSNSSVLPTPPATEAPSSPPPGHQWPVAKMPQKYLGKYACESNLKSKYLPLTQPVMNLRVSEAVKTEYVCNCSVVGSLNVNRCNQTTGQCECRPGYQGLHCETCKEGFYLNYTSGLCQPCDCSPHGALSIPCNSSGKCQCKVGVIGSICDRCQDGYYGFSKNGCLPCQCNNRSASCDALTGACLNCQENSKGNHCEECKEGFYQSPDATKECLRCPCSAVTSTGSCSIKSSELEPECDQCKDGYIGPNCNKCENGYYNFDSICRKCQCHGHVDPVKTPKICKPESGECINCLHNTTGFWCENCLEGYVHDLEGNCIKKEVILPTPEGSTILVSNASLTTSVPTPVINSTFTPTTLQTIFSVSTSENSTSALADVSWTQFN
B2: M9 protein: recombinant full length human MEGF9 protein (SEQ ID NO: 1) (protein, listed as Homo sapiens)
chain: MNGGAERAMRSLPSLGGLALLCCAAAAAAAAVASAASAGNVTGGGGAAGQVDASPGPGLRGEPSHPFPRATAPTAQAPRTGPPRATVHRPLAATSPAQSPETTPLWATAGPSSTTFQAPLGPSPTTPPAAERTSTTSQAPTRPAPTTLSTTTGPAPTTPVATTVPAPTTPRTPTPDLPSSSNSSVLPTPPATEAPSSPPPEYVCNCSVVGSLNVNRCNQTTGQCECRPGYQGLHCETCKEGFYLNYTSGLCQPCDCSPHGALSIPCNSSGKCQCKVGVIGSICDRCQDGYYGFSKNGCLPCQCNNRSASCDALTGACLNCQENSKGNHCEECKEGFYQSPDATKECLRCPCSAVTSTGSCSIKSSELEPECDQCKDGYIGPNCNKCENGYYNFDSICRKCQCHGHVDPVKTPKICKPESGECINCLHNTTGFWCENCLEGYVHDLEGNCIKKEVILPTPEGSTILVSNASLTTSVPTPVINSTFTPTTLQTIFSVSTSENSTSALADVSWTQFNIIILTVIIIVVVLLMGFVGAVYMYREYQNRKLNAPFWTIELKEDNISFSSYHDSIPNADVSGLLEDDGNEVAPNGQLTLTTPIHNYKA

Columns and labels:
[1] = tested on: fLfs isolated from IPF lungs (hfLfs); assay: Pro-fibrogenic marker expression in fLfs in vitro (immunoblot and mRNA); format: cell-based, human; details: 2 μg/ml, 48 h, immunoblot
Protocol: FIGS. 3A-3B. Antibodies specific for M9 inhibited pro-fibrogenic markers expression in fLfs in vitro. hfLfs were serum starved and treated with PBS or 2 μg/ml M9 antibody (M9Ab), or 2 μg/ml M9Ab plus 20 μM CSP7 for 48 hours (FIG. 3A). After treatment, cells were harvested and cell lysates were immunoblotted for pro-fibrogenic markers and M9, and 3-actin was used as loading control.
FIG. 4. […]
FIGS. 7A-7M. […] Lung volumes (FIG. 7B) were measured by quantitative-CT renditions, and lung compliance (FIG. 7C) and elastance (FIG. 7D) were measured using a flexiVent system. […] Statistical significance (*P<0.05, **P<0.01, ***P<0.001 and ****P<0.0001) was assessed by one-way ANOVA with Turkey's multiple comparison.
FIGS. 9A-9O. […] FIG. 9B: Lung volumes were measured by quantitative-CT renditions. Lung compliance (FIG. 9C) and elastance (FIG. 9D) were measured using a flexiVent system. […] Statistical significance (*P<0.05, **P<0.01, ***P<0.001 and ****P<0.0001) was assessed by one-way ANOVA with Turkey's multiple comparison. fLfs isolated from IPF lungs treated with PBS or recombinant full length M9 (rM9^FL) protein (2 μg/ml) for 48 h in vitro were tested for pro-fibrogenic proteins (FIG. 9L). fLfs (from IPF lungs) treated with PBS or extracellular domain of rM9^FL protein (rM9^ECD) as in FIG. 9L were tested for pro-fibrogenic proteins (FIG. 9N). […]

[2] = tested on: BLM-induced pulmonary fibrosis; assay: BLM-induced established pulmonary fibrosis in mice, treatment d14-d21; format: in vivo
Protocol: FIGS. 9A-9O. M9 peptide and protein mitigated BLM-induced pulmonary fibrosis. Mice exposed to saline or 1.0 U/kg BLM by intratracheal instillation were treated with or without M9 peptide HGHVDPVKTPKI (SEQ ID NO: 4) (10 mg/kg/d) and M9 protein (SEQ ID NO: 1) 7.5 mg/kg/d) via IP injection daily for 7 days starting d14 after BLM injury. FIG. 9A: Representative micro-CT images at d21 after BLM exposure. FIG. 9B: Lung volumes were measured by quantitative-CT renditions. Lung compliance (FIG. 9C) and elastance (FIG. 9D) were measured using a flexiVent system. Lung weights (FIG. 9E) and body weights (FIG. 9F) are presented as bar graphs. Lung homogenates were tested for hydroxyproline (FIG. 9G), soluble collagen (FIG. 9H), pro-fibrogenic marker proteins (FIG. 9I) and mRNAs (FIG. 9J). Bars indicate mean±SD. Statistical significance (*P<0.05, **P<0.01, ***P<0.001 and ****P<0.0001) was assessed by one-way ANOVA with Turkey's multiple comparison. fLfs isolated from IPF lungs treated with PBS or recombinant full length M9 (rM9^FL) protein (2 μg/ml) for 48 h in vitro were tested for pro-fibrogenic proteins (FIG. 9L). fLfs (from IPF lungs) treated with PBS or extracellular domain of rM9^FL protein (rM9^ECD) as in FIG. 9L were tested for pro-fibrogenic proteins (FIG. 9N). The survival the mice treated with rM9^FL is shown FIG. 9M.
FIGS. 10A-10K. UNC5A (“U5”) peptide/protein mitigated BLM-induced pulmonary fibrosis. Mice exposed to saline or 1.0 U/kg BLM by intratracheal instillation were treated with or without U5 peptide (50 residues, SEQ ID NO: 7) (10 mg/kg/d) and full length U5 protein (SEQ ID NO: 5) (7.5 mg/kg/d) via IP injection daily for 7 days starting d14 after BLM injury. FIG. 10A: Representative micro-CT images at d21 after BLM exposure. FIG. 10B: Lung volumes were measured by quantitative-CT renditions. Lung compliance (FIG. 10C) and elastance (FIG. 10D) were measured using a flexiVent system. Lung weights (FIG. 10E) and body weights (FIG. 10F) are presented as bar graphs. Lung homogenates were tested for hydroxyproline (FIG. 10G), soluble collagen (FIG. 10H), pro-fibrogenic marker proteins (FIG. 10I) and mRNAs (FIG. 10J). Bars indicate mean±SD. Statistical significance (*P<0.05, **P<0.01, ***P<0.001 and ****P<0.0001) was assessed by one-way ANOVA with Turkey's multiple comparison.
FIGS. 11A-11K. ALG5 (“A5”) protein mitigated BLM-induced pulmonary fibrosis. Mice exposed to saline or 1.0 U/kg BLM by intratracheal instillation were treated with or without A5 protein (SEQ ID NO: 9) (7.5 mg/kg/d) via IP injection daily for 7 days starting d14 after BLM injury. FIG. 11A: Representative micro-CT images at d21 after BLM exposure. FIG. 11B: Lung volumes were measured by quantitative-CT renditions. Lung compliance (FIG. 11C) and elastance (FIG. 11D) were measured using a flexiVent system. Lung weights (FIG. 11E) and body weights (FIG. 11F) are presented as bar graphs. Lung homogenates were tested for hydroxyproline (FIG. 11G), soluble collagen (FIG. 11H), pro-fibrogenic marker proteins (FIG. 11I) and mRNAs (FIG. 11J). Bars indicate mean±SD. *P<0.05, **P<0.01, ***P<0.001 and ****P<0.0001 were obtained by one-way ANOVA with Turkey's multiple comparison.
FIGS. 12A-12E. WT mice with BLM-PF were treated with or without rM9^ECD (1.5 mg/kg) via intratracheal (IT) instillation daily for 7 d starting d 14 after BLM. Survival (FIG. 12A), body weights (FIG. 12B), lung volumes (FIG. 12C) and lung weights (FIG. 12D) were measured on d 21 post-BLM. Lung homogenates were tested for soluble collagen (FIG. 12E).
FIGS. 13A-13B. FIG. 13A: fLfs (IPF) treated with PBS or M9^mAb (2 μg/ml) or control IgG, tested for pro-fibrogenic proteins (i) and mRNAs (ii). FIG. 13B: WT mice with BLM-PF were left untreated, or intraperitoneal (IP) injected with control IgG or M9^mAb (2.5 mg/kg) daily for 7 d starting 14 d after IT BLM. Body weights (i) and total lung hydroxyproline (ii), and soluble collagen (iii) were measured. […]

[3] = protein 7.5 mg/kg/d IP, 7 days starting d14 after BLM
[4] = protein 7.5 mg/kg/d IP, 7 days starting d14 after BLM, flexiVent, d21

Molecule	pro-fibrogenic marker proteins (Col1, FN, TN-C and α-SMA) in fLfs [1]	lung function ([2]; 1.5 mg/kg intratracheal (IT) instillation daily for 7 d starting d 14 after BLM)	existing BLM-induced PF (overall) ([2]; WT mice with BLM-PF, 1.5 mg/kg intratracheal (IT) instillation daily for 7 d starting d 14, d 21, 1.5 mg/kg)	survival rate ([2]; mice with BLM-induced existing PF treated with extracellular domain protein, dose not printed (FIG. 9))	survival rate ([2]; mice with BLM-induced existing PF, full length protein 7.5 mg/kg/d IP)	BLM-induced pulmonary fibrosis (overall) ([2]; mice, 1.0 U/kg BLM IT, protein 7.5 mg/kg/d IP daily for 7 days starting d14, d21)	BLM-induced fibrogenic marker proteins (Col1, FN, TN-C, α-SMA) in whole lung homogenates [2, 3]	body weight [2, 3]	collagen and other extracellular matrix deposits (Trichrome staining of lung sections) [2, 3]	fibrogenic marker transcripts in whole lung homogenates [2, 3]	lung weight [2, 3]	lung compliance [2, 4]	lung elastance [2, 4]	whole lung total hydroxyproline ([2]; protein 7.5 mg/kg/d IP, 7 days starting d14 after BLM, lung homogenates)	lung volume ([2]; protein 7.5 mg/kg/d IP, 7 days starting d14 after BLM, quantitative CT, d21)
B1	reduced	improved	resolved; also recorded: resolution	significantly increased											
B2	reduced				significantly increased	resolved; also recorded: mitigated	marked inhibition	improvement	remarkable reduction	marked inhibition	reduction	improved	improved	significant inhibition	improved
